According to PMC11352367 (Cells, 2024):

Molecular target: the molecule itself
Experiment: high-speed atomic force microscopy; α-actinin alone (50 nM) on bare mica, observation buffer, room temperature

B1: Rabbit skeletal muscle-derived α-actinin (natural protein)
chain: MNQIEPGVQYNYVYDEDEYMIQEEEWDRDLLLDPAWEKQQRKTFTAWCNSHLRKAGTQIENIEEDFRNGLKLMLLLEVISGERLPKPDRGKMRFHKIANVNKALDYIASKGVKLVSIGAEEIVDGNVKMTLGMIWTIILRFAIQDISVEETSAKEGLLLWCQRKTAPYRNVNIQNFHTSWKDGLGLCALIHRHRPDLIDYSKLNKDDPIGNINLAMEIAEKHLDIPKMLDAEDIVNTPKPDERAIMTYVSCFYHAFAGAEQAETAANRICKVLAVNQENERLMEEYERLASELLEWIRRTIPWLENRTPEKTMKAMQKKLEDFRDYRRKHKPPKVQEKCQLEINFNTLQTKLRISNRPAFMPSEGKMVSDAGAWQRLEQAEKGYEEWLLNEIRRLERLEHLAEKFRQKASTHETWAYGKEQILLQKDYESASLTEVRALLRKHEAFESDLAAHQDRVEQIAAIAQELNELDYHDAVNVNDRCQKICDQWDRLGTLTQKRREALERTEKLLETIDQLHLEFAKRAAPFNNWMEGAMEDLQDMFIVHSIEEIQSLITAHEQFKATLPEADGERQSIMAIQNEVEKVIQSYNIRISSSNPYSTVTMDELRAKWDKVKQLVPIRDQSLQEELARQHANERLRRQFAAQANAIGPWIQNKMEEIARSSIQITGALEDQMNQLKQYEHNIINYKNNIDKLEGDHQLIQEALVFDNKHTNYTMEHIRVGWELLLTTIARTINEVETQILTRDAKGITQEQMNEFRASFNHFDRRKNGLMDHEDFRACLISMGYDLGEAEFARIMTLVDPNGQGTVTFQSFIDFMTRETADTDTAEQVIASFRILASDKPYILAEELRRELPPDQAQYCIKRMPAYSGPGSVPGALDYTAFSSALYGESDL
- stoichiometry N: 2
